We go through 2 substances from paper doi:10.1101/2024.07.10.602847.

The target of this assay is AeCRK^G359E-mCherry (Aeschynomene evenia). In words: co-IP.

In the case of AeCRK^G359E-mCherry (receptor), the fold enrichment compared to the negative control MtLYK3-CFP came to 7.37 fold.

As for AeRLCK2-YFP (natural protein), the fold enrichment compared to the negative control MtLYK3-CFP was determined as 2.9 fold.
